Data published in PMC8265659.

Key:
[1] = molecular target: T1, PorX-C-His6 (Porphyromonas gingivalis (33277?)) (UniProt B2RJJ3); assay: EMSA; details: EMSA: 10 mM Tris-HCl pH 7.5, 1 mM EDTA, 5 mM DTT, 10 mM NaCl, 1 mM MgCl2, 5% glycerol, room temperature, 30 min
T1 sequence: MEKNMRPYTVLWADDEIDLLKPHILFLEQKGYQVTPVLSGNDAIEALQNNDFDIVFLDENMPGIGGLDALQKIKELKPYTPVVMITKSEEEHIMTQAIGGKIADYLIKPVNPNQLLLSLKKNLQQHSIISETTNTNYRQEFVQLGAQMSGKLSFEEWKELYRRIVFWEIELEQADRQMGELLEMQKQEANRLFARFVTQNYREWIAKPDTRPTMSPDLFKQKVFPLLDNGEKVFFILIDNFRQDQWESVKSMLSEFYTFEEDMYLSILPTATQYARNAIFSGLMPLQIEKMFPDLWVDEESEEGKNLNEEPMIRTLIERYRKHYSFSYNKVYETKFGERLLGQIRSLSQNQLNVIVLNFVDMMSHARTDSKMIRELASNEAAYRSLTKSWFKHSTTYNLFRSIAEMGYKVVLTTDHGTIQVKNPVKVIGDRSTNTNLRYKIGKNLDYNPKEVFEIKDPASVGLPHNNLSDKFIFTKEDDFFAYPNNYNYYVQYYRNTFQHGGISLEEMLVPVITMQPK

[2] = molecular target: T1, PorX-C-His6 (Porphyromonas gingivalis (33277?)); assay: DNase I footprinting; details: EMSA: 10 mM Tris-HCl pH 7.5, 1 mM EDTA, 5 mM DTT, 10 mM NaCl, 1 mM MgCl2, 5% glycerol, room temperature, 30 min

Sequence: CCGAGTACGTTTACCCCGGCCCGATACAGTTCTTCGGCCCCGAACATGTATGCGATAGCCCCACGATGACACTCCGCTTGGAAAAGAACGATCGCTGACTCTTCCGCTGCATTAGTCGGGTTGATAAGCAGTTGCTTCTGTTTGTTTTGTCGAAAAAAATGTTTTTCTTTGCAATAAGTCTCATTTAAAAGAATCGCCTATCGACGCATATCTACCTTCTGAACAATAAATAAAGAGGATTCTCCTATGAGCAGTTTCCACAAGCTGACTGATGA (double strand) [T1 sigP promoter fragment (275 bp)]
- binding [1]: binds
- binding [2]: binds
